This passage reports Kd results from publication PMC7868722.

In the series the target is human alpha-thrombin (plasma) (Homo sapiens, UniProt P00734;P00734 328-363;364-622). Kind of series: MST.

For the molecule GGTTGGTGTGGTTGG (structured_DNA, T3: N3-aminoalkyl-dT benzoyl amide) [3Bz], the Kd worked out at 30 ± 6.6 nM. With GGTTGGTGTGGTTGG (structured_DNA, T3: N3-propargyl-dT clicked to 1-beta-D-lactopyranosyl azide) [3L], binding was put at a Kd of 11.6 ± 0.5 nM. GGTTGGTGTGGTTGG (structured_DNA, T3: N3-carboxymethyl-dT amide with L-alanine) [3Ala] returned a Kd of 21.4 ± 2.8 nM. In turn, GGTTGGTGTGGTTGG (structured_DNA, T3: N3-carboxymethyl-dT amide with L-serine) [3Ser] showed a Kd of 14.6 ± 0.3 nM. GGTTGGTGTGGTTGG (structured_DNA) [TBA (HD1)] registered a Kd of 20.2 ± 1.3 nM.

Molecule GGTTGGTGTGGTTGG (structured_DNA, T3: N3-aminoalkyl-dT nicotinoyl amide) [3Nic] returned a Kd of 27.1 ± 4.2 nM.

B1: 3G (structured_DNA)
DNA: GGTTGGTGTGGTTGG
modifications: T3: N3-propargyl-dT clicked to 1-beta-D-glucopyranosyl azide (printed glycopyranosyl)
Take B1: the equilibrium dissociation constant (Kd) came out at 9.8 ± 0.6 nM. With GGTTGGTGTGGTTGG (structured_DNA, T12: N3-carboxymethyl-dT amide with L-phenylalanine) [12Phe], the Kd worked out at 99.1 ± 6.3 nM. On to GGTTGGTGTGGTTGG (structured_DNA, T12: N3-propargyl-dT clicked to 1-beta-D-lactopyranosyl azide) [12L], for which the Kd was 27.2 ± 3 nM.

GGTTGGTGTGGTTGG (structured_DNA, T12: N3-carboxymethyl-dT amide with L-tryptophan) [12Trp]: binding was characterised by a dissociation constant (Kd) of 67.3 ± 12.1 nM.

Molecule GGTTGGTGTGGTTGG (structured_DNA, T3: N3-carboxymethyl-dT amide) [3Amide] displayed a Kd of 29.2 ± 0.4 nM.

B2: 12G (structured_DNA)
DNA: GGTTGGTGTGGTTGG
modifications: T12: N3-propargyl-dT clicked to 1-beta-D-glucopyranosyl azide (printed glycopyranosyl)
Molecule B2 came in with a dissociation constant Kd of 20.7 ± 2.8 nM. GGTTGGTGTGGTTGG (structured_DNA, T12: N3-carboxymethyl-dT amide with L-alanine) [12Ala] yielded a Kd of 51 ± 3.8 nM. Molecule GGTTGGTGTGGTTGG (structured_DNA, T3: N3-aminoalkyl-dT p-nitrobenzoyl amide) [3NB] registered a Kd of 164 ± 3.5 nM. In turn, GGTTGGTGTGGTTGG (structured_DNA, T12: N3-carboxymethyl-dT amide with L-leucine) [12Leu] displayed a Kd of 72.2 ± 0.9 nM. In the case of GGTTGGTGTGGTTGG (structured_DNA, T12: N3-carboxymethyl-dT amide with L-serine) [12Ser], the affinity, expressed as Kd, was 86.6 ± 4.5 nM.

With GGTTGGTGTGGTTGG (structured_DNA, T3: N3-carboxymethyl-dT amide with L-phenylalanine) [3Phe], the Kd was determined as 22.6 ± 4.8 nM.

In the case of GGTTGGTGTGGTTGG (structured_DNA, T3: N3-carboxymethyl-dT amide with L-leucine) [3Leu], the Kd stood at 10.9 ± 0.2 nM. GGTTGGTGTGGTTGG (structured_DNA, T12: N3-carboxymethyl-dT amide) [12Amide] gave a Kd of 30.6 ± 6.1 nM.

Broadly, the Kd is the concentration at which binding is half-saturated. Read a low Kd as a tighter complex.
